Experimental data from patent US20070275916A1.

How the values were obtained:
[1] = molecular target: G-CSFR on mouse bone marrow cells (mouse) (UniProt P40223); test: radiolabeled G-CSF on bone marrow cells from control vavCre-SOCS3+/fl mice, with and without excess unlabeled G-CSF
[2] = molecular target: G-CSFR on mouse bone marrow cells (mouse) (UniProt P40223); test: radiolabeled G-CSF on bone marrow cells from vavCre+SOCS3-/fl mice, with and without excess unlabeled G-CSF

Sequence of UniProt P40223 (P40223 26-837): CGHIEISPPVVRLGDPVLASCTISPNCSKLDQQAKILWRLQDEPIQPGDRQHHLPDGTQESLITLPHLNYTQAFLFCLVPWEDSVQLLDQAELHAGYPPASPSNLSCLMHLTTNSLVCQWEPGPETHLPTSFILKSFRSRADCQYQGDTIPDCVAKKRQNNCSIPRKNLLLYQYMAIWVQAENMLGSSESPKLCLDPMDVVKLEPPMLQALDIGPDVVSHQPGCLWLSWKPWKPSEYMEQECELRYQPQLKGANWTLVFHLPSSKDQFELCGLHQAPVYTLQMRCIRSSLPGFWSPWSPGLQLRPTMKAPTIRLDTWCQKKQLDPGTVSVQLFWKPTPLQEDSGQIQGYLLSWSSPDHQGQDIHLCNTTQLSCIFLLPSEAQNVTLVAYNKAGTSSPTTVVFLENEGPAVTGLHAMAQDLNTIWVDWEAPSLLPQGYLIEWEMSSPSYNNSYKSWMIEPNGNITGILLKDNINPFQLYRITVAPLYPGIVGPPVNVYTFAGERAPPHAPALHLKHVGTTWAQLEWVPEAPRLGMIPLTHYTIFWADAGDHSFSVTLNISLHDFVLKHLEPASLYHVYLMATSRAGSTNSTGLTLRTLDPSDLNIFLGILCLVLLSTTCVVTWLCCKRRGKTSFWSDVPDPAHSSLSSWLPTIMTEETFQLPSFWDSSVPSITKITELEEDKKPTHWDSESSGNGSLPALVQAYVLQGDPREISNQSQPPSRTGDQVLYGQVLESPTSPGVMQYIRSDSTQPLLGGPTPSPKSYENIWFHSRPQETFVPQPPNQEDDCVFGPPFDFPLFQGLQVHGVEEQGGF

cpm bound [1]: 1880 cpm
cpm bound [2]: 1700 cpm
Substance: radiolabeled G-CSF (ligand)
